B1: anti-mutCALR antibody clone 41 (antibody, human IgG1, lambda, V domains shown)
VH: EVQLVQSGAEVKKPGASVKVSCKVSGYTLTELSMHWVRQAPGKGLEWMGLVDPEDGETIYAQKFQGRVTMTEDTSTDTAYMELSSLRSEDTAVYYCAREEWSGDGDDAFDIWGQGTMVTVSS
VL: QSVLTQPPSVSAAPGQKVTISCSGSSSNIGSYSVSWYQQLPGTAPKLLIYDNNKRPSGIPDRFSGSNSGTSATLGITGLQTGDEADYYCGTWDSSLSAWVFGGGTKLTVLG
notes: human IgG1
B2: anti-mutCALR antibody clone 42 (antibody, human IgG1, lambda, V domains shown)
VH: B1 VH
VL: B1 VL with N52D, G75S
notes: human IgG1
B3: anti-mutCALR antibody clone 1 (antibody, human IgG1, lambda, V domains shown)
VH: EVQLVQSGAEVKKPGASVKVSCKVSGYTLTELSMQWVRQAPGKGLEWMGGFDPDDGETMYAEKFQGRLTVTEDTSTDTVYMELRSLTSEDTALYFCATSPGYDFFDYWGQGTLVTVSS
VL: SYVLTQPPSVSVAPGKTARITCGGNYIGSKSVHWYQQKPGQAPVLVVYDDGDRPSGIPARFSGSNSGNTATLTISRVEAGDEADYYCQVWDSISDHVVFGGGTKLTVLG
notes: human IgG1
B4: anti-mutCALR antibody clone 22 (antibody, human IgG1, lambda, V domains shown)
VH: B3 VH
VL: B3 VL with Y26N, S31N, G51S, A59E, S75N, I93S, S94N, H96L, V97L, V98I
notes: human IgG1
B5: anti-mutCALR antibody clone 7 (antibody, human IgG1, lambda, V domains shown)
VH: B3 VH
VL: SYVLTQPPSVSVAPGQTASITCVGTNFGSKNVHWYQQRPGQAPVLVVYDDSDRPSGIPERFSGSNSGNTATLTINRVEAGDEADYYCQVWDSSNDLLIFGGGTKLTVLG
notes: human IgG1
B6: anti-mutCALR antibody clone 4 (antibody, human IgG1, lambda, V domains shown)
VH: B3 VH
VL: B5 VL with S19R, V23G, T25N, F27I, N31S, R38K
notes: human IgG1
B7: anti-mutCALR antibody clone 16 (antibody, human IgG1, lambda, V domains shown)
VH: B3 VH
VL: B5 VL with Q16K, S19R, V23G, T25N, F27T, N31S, R38K
notes: human IgG1
B8: anti-mutCALR antibody clone 5 (antibody, human IgG1, lambda, V domains shown)
VH: B3 VH
VL: B5 VL with N75S, N94S, L96H
notes: human IgG1
B9: anti-mutCALR antibody clone 23 (antibody, human IgG1, lambda, V domains shown)
VH: B3 VH
VL: B5 VL with S19R, V23G, T25N, F27I, S29I, N31S, R38K
notes: human IgG1
B10: anti-mutCALR antibody clone 8 (antibody, human IgG1, lambda, V domains shown)
VH: B3 VH with E1Q, A16S
VL: B3 VL with V3E, K16Q, Y26N, G51S, A59E, N68R, Y86H, I93S, V97L
notes: human IgG1
B11: anti-mutCALR antibody clone 12 (antibody, human IgG1, lambda, V domains shown)
VH: B3 VH with D55G
VL: SYVLTQPPSVSVAPGQTARVSCGGNNIGSKSVNWYRQKPGQAPVLVIYDDSDRPSGIPERFSGSNSGNTATLTINRVEAGDEADYYCQVWDSSNDLLIFGGGTKLTVLG
notes: human IgG1
B12: anti-mutCALR antibody clone 25 (antibody, human IgG1, lambda, V domains shown)
VH: B3 VH
VL: B11 VL with V3E, S11A, V20I, S21T, S29R, S31A, N33H, R36Q, I47V
notes: human IgG1
B13: anti-mutCALR antibody clone 24 (antibody, human IgG1, lambda, V domains shown)
VH: B3 VH with F64L
VL: B11 VL with Q16K, V20I, S21T, N33H, R36Q, I47V
notes: human IgG1
B14: anti-mutCALR antibody clone 9 (antibody, human IgG1, lambda, V domains shown)
VH: B3 VH
VL: B11 VL with V20I, S21P, N33H, R36Q, I47V, S51R
notes: human IgG1
B15: anti-mutCALR antibody clone 19 (antibody, human IgG1, lambda, V domains shown)
VH: B3 VH with S75P
VL: B5 VL with P8L, P14L, S19R, V23G, T25S, F27I, S29D, K30I, N31R, R38K
notes: human IgG1
B16: anti-mutCALR antibody clone 10 (antibody, human IgG1, lambda, V domains shown)
VH: B3 VH
VL: B11 VL with V3E, V20I, S21P, K30E, S31G, N33H, R36Q, I47V, N75S
notes: human IgG1
B17: anti-mutCALR antibody clone 18 (antibody, human IgG1, lambda, V domains shown)
VH: B3 VH
VL: B11 VL with Q16K, V20I, S21T, N33H, R36Q, I47V, S55L
notes: human IgG1
B18: anti-mutCALR antibody clone 3 (antibody, human IgG1, lambda, V domains shown)
VH: B3 VH with K63R
VL: B11 VL with V20I, S21T, N33H, R36Q, I47V
notes: human IgG1
B19: anti-mutCALR antibody clone 21 (antibody, human IgG1, lambda, V domains shown)
VH: B3 VH with K23E
VL: B11 VL with N75S
notes: human IgG1
B20: anti-mutCALR antibody clone 13 (antibody, human IgG1, lambda, V domains shown)
VH: B3 VH with E1Q
VL: not shown
notes: human IgG1
B21: anti-mutCALR antibody clone 20 (antibody, human IgG1, lambda, V domains shown)
VH: B3 VH
VL: B11 VL with Q16K, V20I, S21T, S31G, N33H, R36Q, I47V
notes: human IgG1
B22: anti-mutCALR antibody clone 2 (antibody, human IgG1, lambda, V domains shown)
VH: B3 VH
VL: B3 VL with V3E, N25D, Y26N, G51S, A59E, I93S, S94I, V97L, V98I, L105V
notes: human IgG1
B23: anti-mutCALR antibody clone 178 (antibody, human IgG1, lambda, N297A, V domains shown)
VH: B3 VH with D55E, R84S, T87R, L93V
VL: SYVLTQPPSVSVAPGQTARITCGGSDIGDEIVHWYQQKPGQAPVLVVYDDSDRPSGIPERFSGSNSGNTATLTISRAQAGDEADYYCQVWDSSSDHLIFGGGTKLTVLG
B24: anti-mutCALR antibody clone 177 (antibody, human IgG1, lambda, N297A, V domains shown)
VH: B3 VH with D55S, R84S, T87R, L93V
VL: B23 VL
B25: anti-mutCALR antibody clone 176 (antibody, human IgG1, lambda, N297A, V domains shown)
VH: B3 VH with D55A, R84S, T87R, L93V
VL: B23 VL
B26: anti-mutCALR antibody clone 179 (antibody, human IgG1, lambda, N297A, V domains shown)
VH: B3 VH with G56A, R84S, T87R, L93V
VL: B23 VL

Substitutions are numbered along the chain they refer to.

The target in the first assay is T1, Recombinant MBP-mutCALR Type 1 fusion protein (human).
T1 construct: custom made at Cepter; also called recombinant mutCALR protein
Briefly: SPR, IgG captured, 1:1 fit, Exp. 1. The procedure: Experiment 1: Recombinant MBP-mutCALR Type 1 fusion protein was custom made at Cepter (cepterbiopartners.com). Data for the interaction of antibodies with recombinant MBP-mutCALR Type 1 fusion protein were collected at 25° C. on a Biacore 8K instrument (Cytiva, Marlborough, Mass.), and all reagents were obtained from Cytiva unless otherwise specified. The experiments were conducted using Tris-buffered saline (pH 7.2), 0.005% Surfactant P20, 1 mM CaCl₂) as running buffer. To prepare the capture surfaces, anti-human IgG (Fc) antibodies (Product #29234600) was amine-coupled onto a CM4 chip (Product #BR100534) under standard conditions using an Amine Coupling Kit (Product #BR100050). […] The kinetics parameters were obtained by applying 1:1 binding model to fit the data from multiple-cycle injection experiments using Biacore Insight Evaluation software.
A word on the Kd: it is the free concentration of one partner at which half of the binding sites on the other are occupied at equilibrium, for simple one-to-one binding. One may read the koff as a measure of how fast the partners let go of each other. A word on the kon: it is the rate constant with which the complex forms. For the molecule B1, the Kd turned out to be 4.88 nM, the koff was 0.00811 s⁻¹ and the kon came to 1.66e+06 M⁻¹ s⁻¹.

Take B2: the Kd is 6.97 nM, the koff is 0.00452 s⁻¹ and the association rate constant (kon) was found to be 649000 M⁻¹ s⁻¹.

On to B3, for which the Kd stood at 14.2 nM, the koff is 0.0196 s⁻¹ and the on-rate constant (kon) amounted to 1.38e+06 M⁻¹ s⁻¹.

As to B4, the equilibrium dissociation constant (Kd) came out at 12.6 nM, the koff was found to be 0.00289 s⁻¹ and the kon is 229000 M⁻¹ s⁻¹.

On to B5, for which the dissociation constant (Kd) was 3.83 nM, the koff came out at 0.00609 s⁻¹ and the kon was 1.59e+06 M⁻¹ s⁻¹.

Turning to B6, the equilibrium dissociation constant (Kd) turned out to be 4.33 nM, the koff was determined as 0.00704 s⁻¹ and the kon amounted to 1.63e+06 M⁻¹ s⁻¹.

On to B7, for which the Kd turned out to be 12.5 nM, the dissociation rate constant (koff) amounted to 0.0354 s⁻¹ and the kon came to 2.84e+06 M⁻¹ s⁻¹.

In the case of B8, the Kd was found to be 4.33 nM, the koff was determined as 0.00405 s⁻¹ and the on-rate (kon) amounted to 935000 M⁻¹ s⁻¹.

Take B9: the Kd amounted to 4.37 nM, the koff is 0.00343 s⁻¹ and the kon came out at 785000 M⁻¹ s⁻¹.

As to B10, the Kd was 4.58 nM, the koff was determined as 0.00802 s⁻¹ and the kon worked out at 1.75e+06 M⁻¹ s⁻¹.

Take B11: the Kd is 4.08 nM, the koff was determined as 0.0024 s⁻¹ and the on-rate (kon) came to 589000 M⁻¹ s⁻¹.

Turning to B12, the Kd came to 6.64 nM, the koff is 0.00389 s⁻¹ and the kon turned out to be 585000 M⁻¹ s⁻¹.

Regarding B13, the dissociation constant (Kd) came to 7.62 nM, the koff came out at 0.00199 s⁻¹ and the kon is 261000 M⁻¹ s⁻¹.

B14: the Kd turned out to be 2.99 nM, the koff came to 0.00904 s⁻¹ and the kon amounted to 3.02e+06 M⁻¹ s⁻¹.

For the molecule B15, the Kd is 9.04 nM, the koff worked out at 0.0132 s⁻¹ and the kon is 1.46e+06 M⁻¹ s⁻¹.

For B16, the Kd stood at 1.38 nM, the koff came to 0.00292 s⁻¹ and the kon amounted to 2.11e+06 M⁻¹ s⁻¹.

In the case of B17, the Kd came to 2.66 nM, the koff came to 0.00628 s⁻¹ and the kon came to 2.37e+06 M⁻¹ s⁻¹.

As for B18, the dissociation constant Kd came out at 3.45 nM, the dissociation rate constant (koff) was 0.00716 s⁻¹ and the kon is 2.08e+06 M⁻¹ s⁻¹.

B19: the Kd was found to be 2.58 nM, the koff came out at 0.00664 s⁻¹ and the kon came out at 2.57e+06 M⁻¹ s⁻¹.

Consider B20, for which the Kd is 10.1 nM, the koff amounted to 0.0301 s⁻¹ and the kon stood at 2.99e+06 M⁻¹ s⁻¹.

For B21, the Kd turned out to be 4.46 nM, the koff was found to be 0.00498 s⁻¹ and the on-rate (kon) came to 1.12e+06 M⁻¹ s⁻¹.

Turning to B22, the Kd was found to be 7.58 nM, the koff stood at 0.0123 s⁻¹ and the kon was 1.63e+06 M⁻¹ s⁻¹.

A further assay concerns the target T2, human mutCALR on BaF3 cells stably expressing human MPL and human mutCALR (MPL-mutCALR cells) (human).
T2 construct: also called mutant calreticulin
T2 chain: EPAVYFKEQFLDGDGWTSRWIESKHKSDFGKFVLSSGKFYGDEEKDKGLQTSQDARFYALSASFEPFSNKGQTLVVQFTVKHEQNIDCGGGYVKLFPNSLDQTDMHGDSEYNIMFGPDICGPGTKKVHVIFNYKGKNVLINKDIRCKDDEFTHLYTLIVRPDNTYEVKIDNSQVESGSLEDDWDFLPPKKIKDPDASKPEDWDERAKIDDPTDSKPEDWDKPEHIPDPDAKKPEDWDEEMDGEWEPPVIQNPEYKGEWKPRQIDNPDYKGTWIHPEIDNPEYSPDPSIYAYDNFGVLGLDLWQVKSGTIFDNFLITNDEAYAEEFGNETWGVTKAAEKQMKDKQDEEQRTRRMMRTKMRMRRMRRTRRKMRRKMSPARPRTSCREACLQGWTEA
Briefly: flow cytometry, BaF3 MPL-mutCALR cells. The protocol: On the day of the assay, cells were washed and resuspended in assay buffer. Approximately 200,000 cells/well were added to 96-well plates and stained with the indicated concentration of antibodies for 30 minutes on ice. Cells were then washed and stained with goat anti-human secondary conjugated to R-phycoerythrin (R-PE) (Jackson Immuno Research Laboratories) for 30 minutes on ice. The cells were then washed and analyzed by flow cytometry.
Background: A flow cytometer gives signals particle by particle.
The term EC50 denotes the concentration needed to bring the measured effect to its halfway point. A high value points to a need for much substance. On to B23, for which the EC50 was 4.1 ng/mL and the “MPL-mutCALR AUC” value is 63600.

For the molecule B24, the EC50 stood at 3.4 ng/mL and the “MPL-mutCALR AUC” value stood at 52900.

Consider B25, for which the EC50 was determined as 3.1 ng/mL and the “MPL-mutCALR AUC” value was determined as 48400.

Regarding B26, the EC50 amounted to 5.8 ng/mL and the “MPL-mutCALR AUC” value is 60200.

(Values after US20230272055A1 (Incyte, published 2023).)
